Assay results taken from publication PMC10729762, “CsrA selectively modulates sRNA-mRNA regulator outcomes”.

B1: GcvB (structured_RNA)
RNA: ACUUCCUGAGCCGGAACGAAAAGUUUUAUCGGAAUGCGUGUUCUGGUGAACUUUUGGCUUACGGUUGUGAUGUUGUGUUGUUGUGUUUGCAAUUGGUCUGCGAUUCAGACCAUGGUAGCAAAGCUACCUUUUUUCACUUCCUGUACAUUUACCCUGUCUGUCCAUAGUGAUUAAUGUAGCACCGCCUAAUUGCGGUGCUUUUUUUU
B2: SibC (structured_RNA)
RNA: GUAAGGGUAAGGGAGGAUUGCUCCUCCCCUGAGACUGACUGUUAAUAAGCGCUGAAACUUAUGAGUAACAGUACAAUCAGUAUGAUGACAAGUCGCAUCAUAACCCUUCUCCUUCAAGCCCUCGCUUCGGUGAGGGCUUU
B3: GlmZ (structured_RNA)
RNA: GUAGAUGCUCAUUCCAUCUCUUAUGUUCGCCUUAGUGCCUCAUAAACUCCGGAAUGACGCAGAGCCGUUUACGGUGCUUAUCGUCCACUGACAGAUGUCGCUUAUGCCUCAUCAGACACCAUGGACACAACGUUGAGUGAAGCACCCACUUGUUGUCAUACAGACCUGUUUUAACGCCUGCUCCGUAAUAAGAGCAGGCGUUUUUUU
B4: MicL-S (structured_RNA)
RNA: AUUUUUACCGUUGCAUCAUGUCGCCCAAUAUGAUGCUUGCUCGUACCAGGCCCCUGCAAUUUCAACAGGGGCCUUUUUUU
B5: SibD (structured_RNA)
RNA: ACAAGGGUGAGGGAGGAUUUCUCCCCCCUCUGAUUGGCUGUUAAUAAGCUGCGAAACUUACGAGUAACAACACAAUCAGUAUGAUGACGAGCUUCAUCAUAACCCUUUCCUUCUGUAAGGCCCCCUUCUUCGGGAGGGGCUUU
B6: GadY (structured_RNA)
RNA: ACUGAGAGCACAAAGUUUCCCGUGCCAACAGGGAGUGUUAUAACGGUUUAUUAGUCUGGAGACGGCAGACUAUCCUCUUCCCGGUCCCCUAUGCCGGGUUUUUUU
B7: SgrS (structured_RNA)
RNA: GAUGAAGCAAGGGGGUGCCCCAUGCGUCAGUUUUAUCAGCACUAUUUUACCGCGACAGCGAAGUUGUGCUGGUUGCGUUGGUUAAGCGUCCCACAACGAUUAACCAUGCUUGAAGGACUGAUGCAGUGGGAUGACCGCAAUUCUGAAAGUUGACUUGCCUGCAUCAUGUGUGACUGAGUAUUGGUGUAAAAUCACCCGCCAGCAGAUUAUACCUGCUGGUUUUUUUU
B8: ChiX (structured_RNA)
RNA: ACACCGUCGCUUAAAGUGACGGCAUAAUAAUAAAAAAAUGAAAUUCCUCUUUGACGGGCCAAUAGCGAUAUUGGCCAUUUUUUU
B9: DsrA (structured_RNA)
RNA: AACACAUCAGAUUUCCUGGUGUAACGAAUUUUUUAAGUGCUUCUUGCUUAAGCAAGUUUCAUCCCGACCCCCUCAGGGUCGGGAUUU
B10: SibA (structured_RNA)
RNA: GUGAGGGUUAGGGAGAGGUUUCCCCCUCCCCCUGGUGUUCUUAGUAAGCCUGGAAGCUAAUCACUAAGAGUAUCACCAGUAUGAUGACGUGCUUCAUCAUAACCCUUUCCUUAUUAAAAGCCCUCUUCUCCGGGAGAGGCUUU
B11: McaS (structured_RNA)
RNA: ACCGGCGCAGAGGAGACAAUGCCGGAUUUAAGACGCGGAUGCACUGCUGUGUGUACUGUAGAGUCUGGCGGAUGUCGACAGACUCUAUUUUUU
B12: Spot 42 (spf) (structured_RNA)
RNA: GUAGGGUACAGAGGUAAGAUGUUCUAUCUUUCAGACCUUUUACUUCACGUAAUCGGAUUUGGCUGAAUAUUUUAGCCGCCCCAGUCAGUAAUGACUGGGGCGUUUUUUA

Biological target: T1, CsrA (UniProt P69913 1-61)
Test: EMSA; up to 6 uM CsrA; 10 nM denatured RNA, 0-6 uM CsrA, 0-3 uM Hfq; 1X binding buffer (10 mM Tris-HCl pH 7.5, 10 mM MgCl2, 100 mM KCl) plus CsrA dilution buffer, 11% glycerol, 20 mM
Conditions: protein: recombinant; chain copies: 2; label: internal 32P-UTP

T1 sequence (P69913 whole entry): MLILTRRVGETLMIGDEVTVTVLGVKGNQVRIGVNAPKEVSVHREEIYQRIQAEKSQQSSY

Question: Does B1 bind?
Answer: no binding

Question: Does B2 bind?
Answer: no binding

Biological target: T1, CsrA
Test: EMSA; 6 uM CsrA; 10 nM denatured RNA, 0-6 uM CsrA, 0-3 uM Hfq; 1X binding buffer (10 mM Tris-HCl pH 7.5, 10 mM MgCl2, 100 mM KCl) plus CsrA dilution buffer, 11% glycerol, 20 mM
Conditions: protein: recombinant; chain copies: 2; label: internal 32P-UTP

Question: Does B3 bind?
Answer: binds

Question: Does B4 bind?
Answer: binds

Question: Does B5 bind?
Answer: binds

Biological target: T1, CsrA
Test: EMSA; 3 or 6 uM CsrA; 10 nM denatured RNA, 0-6 uM CsrA, 0-3 uM Hfq; 1X binding buffer (10 mM Tris-HCl pH 7.5, 10 mM MgCl2, 100 mM KCl) plus CsrA dilution buffer, 11% glycerol, 20 mM
Conditions: protein: recombinant; chain copies: 2; label: internal 32P-UTP

Question: Does B6 bind?
Answer: binds

Question: Does B7 bind?
Answer: binds

Question: Does B8 bind?
Answer: binds

Question: Does B9 bind?
Answer: binds

Question: Does B10 bind?
Answer: binds

Question: Does B11 bind?
Answer: binds

Same assay, conditions: protein: recombinant; chain copies: 2; label: internal 32P-UTP (EMSA)

Question: Does B12 bind?
Answer: binds
